# Data reported in paper doi:10.1101/679431 (bioRxiv, 2019).
# Key:
# native gel or EMSA = target: the molecule itself; assay: native gel or EMSA
# [1] = target: the molecule itself; assay: affinity purification with mass spectrometry + native gel or EMSA
Protein,stoichiometry N (native gel or EMSA),stoichiometry N [1]
endogenous TRAP1 (natural protein) STQTAEDKEEPLHSIISSTESVQGSTSKHEFQAETKKLLDIVARSLYSEKEVFIRELISNASDALEKLRHKLVSDGQALPEMEIHLQTNAEKGTITIQDTGIGMTQEELVSNLGTIARSGSKAFLDALQNQAEASSKIIGQFGVGFYSAFMVADRVEVYSRSAAPGSLGYQWLSDGSGVFEIAEASGVRTGTKIIIHLKSDCKEFSSEARVRDVVTKYSNFVSFPLYLNGRRMNTLQAIWMMDPKDVREWQHEEFYRYVAQAHDKPRYTLHYKTDAPLNIRSIFYVPDMKPSMFDVSRELGSSVALYSRKVLIQTKATDILPKWLRFIRGVVDSEDIPLNLSRELLQESALIRKLRDVLQQRLIKFFIDQSKKDAEKYAKFFEDYGLFMREGIVTATEQEVKEDIAKLLRYESSALPSGQLTSLSEYASRMRAGTRNIYYLCAPNRHLAEHSPYYEAMKKKDTEVLFCFEQFDELTLLHLREFDKKKLISVETDIVVDHYKEEKFEDRSPAAECLSEKETEELMAWMRNVLGSRVTNVKVTLRLDTHPAMVTVLEMGAARHFLRMQQLAKTQEERAQLLQPTLEINPRHALIKKLNQLRASEPGLAQLLVDQIYENAMIAAGLVDDPRAMVGRLNELLVKALERH,4,–
TRAP1-GST fusion protein (natural protein) STQTAEDKEEPLHSIISSTESVQGSTSKHEFQAETKKLLDIVARSLYSEKEVFIRELISNASDALEKLRHKLVSDGQALPEMEIHLQTNAEKGTITIQDTGIGMTQEELVSNLGTIARSGSKAFLDALQNQAEASSKIIGQFGVGFYSAFMVADRVEVYSRSAAPGSLGYQWLSDGSGVFEIAEASGVRTGTKIIIHLKSDCKEFSSEARVRDVVTKYSNFVSFPLYLNGRRMNTLQAIWMMDPKDVREWQHEEFYRYVAQAHDKPRYTLHYKTDAPLNIRSIFYVPDMKPSMFDVSRELGSSVALYSRKVLIQTKATDILPKWLRFIRGVVDSEDIPLNLSRELLQESALIRKLRDVLQQRLIKFFIDQSKKDAEKYAKFFEDYGLFMREGIVTATEQEVKEDIAKLLRYESSALPSGQLTSLSEYASRMRAGTRNIYYLCAPNRHLAEHSPYYEAMKKKDTEVLFCFEQFDELTLLHLREFDKKKLISVETDIVVDHYKEEKFEDRSPAAECLSEKETEELMAWMRNVLGSRVTNVKVTLRLDTHPAMVTVLEMGAARHFLRMQQLAKTQEERAQLLQPTLEINPRHALIKKLNQLRASEPGLAQLLVDQIYENAMIAAGLVDDPRAMVGRLNELLVKALERH,–,4
